Non-standard residues stand in square brackets, D forms with d. Primed or numbered codes have the meaning given here. No end group written: not given here. PEG12″ = PEG12 group on the N-terminal Lys
T1: Apelin Receptor (APJ) stably overexpressed in CHO-K1 AGTRL1 Gi cells (human, UniProt P35414 1-380)
T1 sequence (looked up): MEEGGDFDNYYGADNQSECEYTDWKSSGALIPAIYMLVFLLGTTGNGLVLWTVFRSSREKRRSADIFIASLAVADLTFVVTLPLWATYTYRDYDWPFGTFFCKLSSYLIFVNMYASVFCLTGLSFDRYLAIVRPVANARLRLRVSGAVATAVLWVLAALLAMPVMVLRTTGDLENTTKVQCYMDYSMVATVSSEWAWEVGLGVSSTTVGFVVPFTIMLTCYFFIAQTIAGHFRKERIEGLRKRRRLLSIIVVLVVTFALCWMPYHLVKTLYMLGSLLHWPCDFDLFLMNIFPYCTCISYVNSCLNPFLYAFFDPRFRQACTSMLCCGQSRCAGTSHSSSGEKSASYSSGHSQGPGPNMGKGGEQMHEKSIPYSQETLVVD


Target: T1, Apelin Receptor (APJ) stably …
Experiment: cell-based or functional assay

| Binder | IC50, inhibition of forskolin-stimulated cAMP accumulation |
| --- | --- |
| KRRMMGMVFQSLCGA ((PEG12) on the N-terminal K (position 1); (dA) D-alanine at position 15) [SEQ ID NO 36] | 1.6 µM |
| MRRMMGMVFQCLCGL [SEQ ID NO 7] | 1.24 µM |
| RRIIGIVFQSLCG[dA] [SEQ ID NO 43] | 2.07 µM |
| KRRLLGLVFQSLCGA ((PEG12) on the N-terminal K (position 1); (dA) D-alanine at position 15) [SEQ ID NO 37] | 2.5 µM |
| RRMMGMVFQSLCG[dA] [SEQ ID NO 15] | 4.49 µM |
| [PEG12″]KRRIIGIVFQCLCG[dA] (cysteine pairing not given here) [SEQ ID NO 42] | 4.38 µM |

Target: ProLink tagged human APJ (Apelin Receptor) in CHO-K1 AGTRL1 β-Arrestin cells (human, UniProt P35414 1-380)
Experiment: cell-based or functional assay

| Binder | β-Arrestin recruitment, Percent of Apelin-13 Control Activity (10 µM peptide) |
| --- | --- |
| RRMMGMVAQCLCG[dA] (cysteine pairing not given here) [SEQ ID NO 11] | 0 % of Apelin-13 control |
| KRRMMGMVFQSLCGA ((PEG12) on the N-terminal K (position 1); (dA) D-alanine at position 15) [SEQ ID NO 36] | 63 % of Apelin-13 control |
| MRRMMGMVFQCLCGL [SEQ ID NO 7] | 91 % of Apelin-13 control |
| MMGMVFQSLCG[dA] [SEQ ID NO 49] | 1 % of Apelin-13 control |
| RRMMGMVYQCLCG[dA] (cysteine pairing not given here) [SEQ ID NO 10] | 3 % of Apelin-13 control |
| RRMMGMVFQCLEG[dA] [SEQ ID NO 14] | 0 % of Apelin-13 control |
| MMGMVFQS [SEQ ID NO 47] | 1 % of Apelin-13 control |
| KRRLLGLVFQSLCGA ((PEG12) on the N-terminal K (position 1); (dA) D-alanine at position 15) [SEQ ID NO 37] | 12 % of Apelin-13 control |
| RRMMGMVFQELCG[dA] [SEQ ID NO 13] | 1 % of Apelin-13 control |
| RRMMGMVFQSLCG[dA] [SEQ ID NO 15] | 40 % of Apelin-13 control |
| [PEG12″]KRRIIGIVFQCLCG[dA] (cysteine pairing not given here) [SEQ ID NO 42] | 8 % of Apelin-13 control |
| RRMMGMVEQCLCG[dA] (cysteine pairing not given here) [SEQ ID NO 12] | -1 % of Apelin-13 control |
| MMGMVFQSL [SEQ ID NO 48] | 1 % of Apelin-13 control |
| MMGMVFQ [SEQ ID NO 46] | 0 % of Apelin-13 control |

Target: T1, Apelin Receptor (APJ) stably …
Experiment: cell-based or functional assay
Remark: another data set of the same source

| Binder | cAMP levels, Percent of Pyr-Apelin-13 Control Activity (10 µM peptide, 10 µM forskolin) |
| --- | --- |
| RRMMGMVAQCLCG[dA] (cysteine pairing not given here) [SEQ ID NO 11] | 49 % of Pyr-Apelin-13 control |
| KRRMMGMVFQSLCGA ((PEG12) on the N-terminal K (position 1); (dA) D-alanine at position 15) [SEQ ID NO 36] | 101 % of Pyr-Apelin-13 control |
| MRRMMGMVFQCLCGL [SEQ ID NO 7] | 109 % of Pyr-Apelin-13 control |
| MMGMVFQSLCG[dA] [SEQ ID NO 49] | 14 % of Pyr-Apelin-13 control |
| RRMMGMVYQCLCG[dA] (cysteine pairing not given here) [SEQ ID NO 10] | 70 % of Pyr-Apelin-13 control |
| RRMMGMVFQCLEG[dA] [SEQ ID NO 14] | 39 % of Pyr-Apelin-13 control |
| MMGMVFQS [SEQ ID NO 47] | -6 % of Pyr-Apelin-13 control |
| KRRLLGLVFQSLCGA ((PEG12) on the N-terminal K (position 1); (dA) D-alanine at position 15) [SEQ ID NO 37] | 53 % of Pyr-Apelin-13 control |
| RRMMGMVFQELCG[dA] [SEQ ID NO 13] | 49 % of Pyr-Apelin-13 control |
| RRMMGMVFQSLCG[dA] [SEQ ID NO 15] | 105 % of Pyr-Apelin-13 control |
| [PEG12″]KRRIIGIVFQCLCG[dA] (cysteine pairing not given here) [SEQ ID NO 42] | 33 % of Pyr-Apelin-13 control |
| RRMMGMVEQCLCG[dA] (cysteine pairing not given here) [SEQ ID NO 12] | 24 % of Pyr-Apelin-13 control |
| MMGMVFQSL [SEQ ID NO 48] | 15 % of Pyr-Apelin-13 control |
| MMGMVFQ [SEQ ID NO 46] | 11 % of Pyr-Apelin-13 control |
